According to patent publication US20190248902A1 (published 2019):
Changes are numbered by the printed parent chain.

T1: Pig ASGR-1 (pig)
T1 construct: Expressed on HEK 293 cells or as membrane prep on beads; cDNA GenBank NM_001244458
T1 chain: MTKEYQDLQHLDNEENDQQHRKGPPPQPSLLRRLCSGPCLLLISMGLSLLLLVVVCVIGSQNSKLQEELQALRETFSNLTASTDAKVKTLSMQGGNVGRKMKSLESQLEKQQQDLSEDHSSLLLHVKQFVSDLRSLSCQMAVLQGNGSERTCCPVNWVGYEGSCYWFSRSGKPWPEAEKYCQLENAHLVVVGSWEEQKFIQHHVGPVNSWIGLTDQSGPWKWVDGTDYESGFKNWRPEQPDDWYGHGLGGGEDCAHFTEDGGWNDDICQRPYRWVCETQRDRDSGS

T2: Mouse ASGR-1 (mouse, UniProt P34927 1-284)
T2 construct: Expressed on HEK 293 cells or as membrane prep on beads; cDNA GenBank BC022106.1; also called muASGR-1; mASGR-1
T2 sequence: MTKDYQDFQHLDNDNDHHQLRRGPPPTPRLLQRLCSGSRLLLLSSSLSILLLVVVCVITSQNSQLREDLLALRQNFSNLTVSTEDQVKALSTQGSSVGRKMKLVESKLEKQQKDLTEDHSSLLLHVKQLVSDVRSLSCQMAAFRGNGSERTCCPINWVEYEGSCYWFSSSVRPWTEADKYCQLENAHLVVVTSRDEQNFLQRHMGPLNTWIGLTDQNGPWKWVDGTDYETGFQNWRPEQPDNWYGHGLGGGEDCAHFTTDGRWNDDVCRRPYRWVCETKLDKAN

B1: 194A4 (antibody, V domains shown)
VH: QVQLVQSGTEVKKPGASLKVSCKASGYTFTVYYLNWVRQAPGQGLEWMGWINPNSGGTNYAQKFQGRVTMTRDTSISTAYMELSRLRSDDTAVYYCARGYDILTGWGQGTLVTVSS
VL: EIVLTQSPGTLSLSPGERATLSCRASRGVSNIYLAWYQQKPGQAPRLLIYGASNRATGIPDRFSGSGSGTDFTLTISRLEPEDFAVYYCQHNDYSMFTFGPGTKVDIK
notes: Tested as hybridoma supernatant at normalized concentration
B2: 56E5 (antibody, V domains shown)
VH: QVQLVQSGAEVKKPGASVKVSCQASGYTFTGYHMHWVRQAPGQGLEWMGWINPNNNATNYAQKFQGRVTMTRDTSISTAYMELRRLRSDDTAVYHCARDGTSSFDYWGQGTLVTVSS
VL: DIQMTQSPSSVSASVGDRVTITCRASQGIRKWLAWYQQKPGKAPKLLIYAASSLQSGVPSRFSGSGSGTDFTLTISSLQPEDFATYYCQQANSFPFTFGPGTKVDIK
notes: as for B1
B3: 25A4 (antibody, V domains shown)
VH: QVLLVQSGAEVKRPGASVKVSCKASGYTFTNYDINWVRQATGQGLEWMGWMYPNSGNTGYAQKFQGRVTMTRNTSISTAYMELSSLRSEDTAVYYCASSSGWYYFDYWGQGTLVTVSS
VL: DIVMTQFPDSLAVSLGERATIKCKSSQSVLYSSHNNNYLAWYQQKPGQPPKLLLYWASTRESGVPDRFSGSGSGTEFTLTISSLEAEDVAVYYCQQYYSTPPTFGQGTKVEIK
notes: as for B1
B4: 26C4 (antibody, V domains shown)
VH: B3 VH with L3Q, R13K, T41S, Y52N, K63R, S77N
VL: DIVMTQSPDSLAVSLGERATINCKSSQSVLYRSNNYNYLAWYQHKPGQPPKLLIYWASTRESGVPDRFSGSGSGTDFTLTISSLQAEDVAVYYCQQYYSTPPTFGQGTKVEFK
notes: as for B1
B5: 4A2 (antibody, V domains shown)
VH: B3 VH with L3Q, A9T, R13K, Y52H, M70L
VL: DIVMTQSPDSLAVSLGERATINCKSSQSILHSSNNNNYLAWFQQKPGQPPKLLLYWASTRESGVPDRFSGSGSGTDFTLTISSLQPEDVAVYYCQQYYNTPVTFGPGTKVGIK
notes: as for B1
B6: 29H8 (antibody, V domains shown)
VH: B3 VH with L3Q, K12Q, R13K, Y52N, K63R, T78A
VL: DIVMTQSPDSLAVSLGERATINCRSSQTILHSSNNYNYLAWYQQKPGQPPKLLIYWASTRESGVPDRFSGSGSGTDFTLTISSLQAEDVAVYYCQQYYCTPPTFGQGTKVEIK
notes: as for B1
B7: 48B12 (antibody, V domains shown)
VH: EVQLLESGGGLVQPGGSLRLSCAASGFTFSSYAMNWVRQAPGKGLEWVSAISGRGGNTFYADSVKGRFTISRDNSKNTLYLQMNSLRAEDTAVYYCAKRETYNWNYEGFDYWGQGTLVTVSS
VL: SYELTQPPSVSVSPGQTARITCSGDALPKKYAYWYQQKSGQAPVLVIYEDSKRPSGIPERFSGSSSGTMATLTISGAQVEDEADYYCNSTDSSGNHVVFGGGTKLTVL
notes: as for B1

Experiments:
Pig ASGR-1 = molecular target: T1, Pig ASGR-1; test: FACS on transfected HEK 293 cells or membrane preps on beads; Y = signal at least 2x irrelevant IgG
Method in brief: (§1)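 Antibodies at normalized concentrations bound 1 h at 4° C to HEK 293 cells expressing each antigen, then Alexa Fluor 647 anti-Fc plus 7-AAD 15 min at 4° C, flow cytometry; empty-vector cells as negative. Alternatively, species ASGR-1 membrane preps on streptavidin beads, antibody 1 h RT, Alexa Fluor 488 anti-Fc; FACS buffer with 1 mM CaCl2 throughout.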

Mouse ASGR-1 = molecular target: T2, Mouse ASGR-1; test: FACS on transfected HEK 293 cells or membrane preps on beads; binding = signal at least 2x irrelevant IgG
Method in brief: as §1

Row | Binder | binding result (Pig ASGR-1) | binding result (Mouse ASGR-1)
1 | B1 | binds | no binding
2 | B2 | binds | no binding
3 | B3 | binds | no binding
4 | B4 | binds | no binding
5 | B5 | binds | no binding
6 | B6 | binds | no binding
7 | B7 | binds | no binding
